From patent US20020182666

How the values were obtained:
[1] = biological target: T1, recombinant human full-length TrpRS with C-terminal tag of six histidine residues
T1 chain: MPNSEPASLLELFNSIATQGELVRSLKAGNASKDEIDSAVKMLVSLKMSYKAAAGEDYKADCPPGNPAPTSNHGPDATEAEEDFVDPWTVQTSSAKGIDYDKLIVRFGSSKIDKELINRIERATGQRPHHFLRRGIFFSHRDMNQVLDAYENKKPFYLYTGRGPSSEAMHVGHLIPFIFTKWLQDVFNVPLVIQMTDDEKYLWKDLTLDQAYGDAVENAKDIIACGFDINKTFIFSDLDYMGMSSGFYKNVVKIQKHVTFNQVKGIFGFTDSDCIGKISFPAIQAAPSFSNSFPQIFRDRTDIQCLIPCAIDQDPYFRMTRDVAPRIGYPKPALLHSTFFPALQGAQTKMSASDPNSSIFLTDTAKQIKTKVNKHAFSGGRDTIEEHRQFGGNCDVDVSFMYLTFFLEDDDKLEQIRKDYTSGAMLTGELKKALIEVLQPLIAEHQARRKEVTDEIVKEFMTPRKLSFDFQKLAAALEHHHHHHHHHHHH

[2] = biological target: T2, recombinant human full-length TyrRS with C-terminal tag of six histidine residues
T2 chain: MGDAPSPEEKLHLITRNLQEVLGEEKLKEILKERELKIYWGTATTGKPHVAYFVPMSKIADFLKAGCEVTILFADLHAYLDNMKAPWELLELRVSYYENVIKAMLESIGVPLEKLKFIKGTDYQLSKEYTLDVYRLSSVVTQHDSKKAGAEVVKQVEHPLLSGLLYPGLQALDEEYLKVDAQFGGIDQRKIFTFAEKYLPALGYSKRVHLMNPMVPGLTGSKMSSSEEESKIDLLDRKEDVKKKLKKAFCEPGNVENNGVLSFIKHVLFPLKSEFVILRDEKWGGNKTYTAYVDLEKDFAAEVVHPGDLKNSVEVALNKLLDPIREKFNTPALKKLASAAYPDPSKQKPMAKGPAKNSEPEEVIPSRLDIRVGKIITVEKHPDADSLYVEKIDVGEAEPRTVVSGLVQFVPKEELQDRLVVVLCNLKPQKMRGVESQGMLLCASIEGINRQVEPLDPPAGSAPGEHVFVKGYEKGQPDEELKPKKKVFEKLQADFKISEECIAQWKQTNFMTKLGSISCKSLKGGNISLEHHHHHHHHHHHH

B1: PMN elastase (protein)
chain: IVGGRRARPHAWPFMVSLQLRGGHFCGATLIAPNFVMSAAHCVANVNVRAVRVVLGAHNLSRREPTRQVFAVQRIFENGYDPVNLLNDIVILQLNGSATINANVQVAQLPAQGRRLGNGVQCLAMGWGLLGRNRGIASVLQELNVTVVTSLCRRSNVCTLVRGRQAGVCFGDSGSPLVCNGLIHGIASFVRGGCASGLYPDAFAPVAQFVNWIDSIIQ
- cleavage of full-length TrpRS by PMN elastase (SDS-PAGE) [1]: PMN elastase cleavage of the 54 kDa full-length TrpRS generated a major fragment of 47 kDa and a minor fragment of 44 kDa
- cleavage of full-length TyrRS by PMN elastase (SDS-PAGE, immunoblot) [2]: the addition of PMN elastase to full-length TyrRS generated a doublet of ~40 kD fragments and a ~24 kD fragment
